Consider 1 molecule from article PMC7749166 (Communications Biology, 2020).

The target of the experiment is T1, C5aR^R175V/Y258V (Homo sapiens, UniProt P21730, R175V/Y258V).
T1 construct: Flag (N); His8 (C); made in house; host or cells: HEK-293S cells (BacMam baculovirus)
T1 sequence (P21730 1-350 R175V/Y258V): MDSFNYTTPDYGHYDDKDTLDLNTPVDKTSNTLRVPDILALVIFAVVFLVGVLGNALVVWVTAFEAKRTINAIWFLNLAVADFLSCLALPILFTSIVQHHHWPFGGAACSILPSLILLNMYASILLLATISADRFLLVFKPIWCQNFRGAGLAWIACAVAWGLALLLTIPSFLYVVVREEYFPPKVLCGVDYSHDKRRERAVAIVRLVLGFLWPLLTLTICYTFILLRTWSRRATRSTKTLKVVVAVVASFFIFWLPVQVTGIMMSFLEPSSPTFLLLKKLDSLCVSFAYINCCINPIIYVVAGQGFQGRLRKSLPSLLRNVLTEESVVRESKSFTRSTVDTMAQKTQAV
Nature of the experiment: 35S-GTPγS binding assay, R175V/Y258V mutant. Type of experiment: biochemical. Particulars: increased concentration of C5a, Fig. S7. The procedure: Mutant variants (D282A, D282N, and R175V/Y258V) were generated based on the wtC5aR construct and fully sequenced. Mutant variants were expressed following the same method as for wtC5aR except for some modifications. HEK-293S cells expressing each mutant were pelleted by centrifugation and resuspended in 20 ml buffer containing 20 mM HEPES pH 7.5, 100 mM NaCl, 0.2 μg ml^−1 leupeptin, and 150 μg ml^−1 benzamidine. After 20 min incubation at 25 °C, 20 ml 2X solubilization buffer containing 20 mM HEPES pH 7.5, 100 mM NaCl, 1% dodecyl-maltoside (DDM), 0.2% cholesterol hemisuccinate (CHS), 20% glycerol, 0.2 μg ml^−1 leupeptin, 150 μg ml^−1 benzamidine, and 5 U Salt Active Nuclease (Sigma) was added. Cell membranes were solubilized for 1.5 h at 4 °C. […]
For the ^35S-GTPγS binding assays, the membrane of HEK293S GnTI^− cells expressing wtC5aR (~200 µg ml^−1) or mutant variants was incubated with 200 nM purified Gi protein for 30 min on ice in buffer containing 20 mM HEPES pH 7.5, 100 mM NaCl, 5 mM MgCl2, 3 μg ml^−1 BSA, 0.1 μM TCEP, and 5 μM GDP to get the receptor and Gi complex. […] The radiation of bound ^35S-GTPγS was measured on a Beckman LS6500 scintillation counter to determine the binding of ^35S-GTPγS to Gi induced by C5aR activation. […]
On the technique in general: Binding of GTPγS marks nucleotide exchange on a G protein.

B1: C5a: C5a, a large 74-amino acid glycoprotein; endogenous ligand of C5aR (His6-tag at N-terminal end for AFM tips) (protein)
chain: TLQKKIEEIAAKYKHSVVKKCCYDGACVNNDETCEQRAARISLGPRCIKAFTECCVVASQLRANISHKDMQLGR
modifications: left off: His6, N-terminal, kept
For B1, the “Gi-protein activation vs C5aR^WT” value is on record as “strong reduction in the Gi-protein activation”.
